Measured values published in US20160287696A1, “PAN POLLEN IMMUNOGENS AND METHODS AND USES FOR IMMUNE RESPONSE MODULATION” (LA JOLLA INSTITUTE FOR ALLERGY AND IMMUNOLOGY, priority 2013, published 2016).

B1: NTGA 10: Phl p wild type sequence, Table 2 (protein)
chain: MVFSVTKKDTKPFDGQKPGTSGLRKKVTVFQQPHYLANFVQSTFNALPADQVKGATIVVSGDGRYFSKDAVQIITKMAAANGVRRVWVGQDSLLSTPAVSAIIRERIAADGSKATGAFILTASHNPGGPTEDFGIKYNMGNGGPAPESVTDKIFSNTTTITEYLIAEDLPDVDISALGVTTFTGPEGPFDVDVFDSATDYIKLMKTIFDFESIKKLLASPKFSFCFDGLHGVAGAYAKRMFVDELGASESSLLNCVPKEDFGGGHPDPNLTYAKELVERMGLGKSSSNVEPPEFGAAADGDADRNMVLGKRFFVTPSDSVAIIAANAVQSIPYFASGLKGVARSMPTSAALDVVAKNLNLKFFEVPTGWKFFGNLMDAGMCSVCGEESFGTGSDHIREKDGIWAVLAWLSIIAYKNKDNLGGDKLVSVEDIVLQHWATYGRHYYTRYDYENVDAEAAKELMANLVKMQSALSDVNKLIKEIQPDVAEVVSADEFEYKDPVDGSVSKHQGIRYLFGDGSRLVFRLSGTGSVGATIRIYIEQYEKDSSKTGRESSDALSPLVDVALKLSKIKEYTGRSAPTVIT
modifications: Phleum Pratense
B2: NTGA 11: Phl p wild type sequence, Table 2 (protein)
chain: MATSWTLPDHPTLPKGKTVAVIVLDGWGEASADQYNCIHRAETPVMDSLKNGAPEKWTLVKAHGTAVGLPSDDDMGNSEVGHNALGAGRIFAQGAKLVDAALASGKIWEAEGFNYIKESFAEGTLHLIGLLSDGGVHSRLDQVQLLVKGASERGAKRIRLHILTDGRDVLDGSSVGFVETLENDLAQLREKGVDAQVASGGGRMYVTMDRYENDWDVVKRGWDAQVLGEAPYKFKSALEAVKTLRAEPKANDQYLPAFVIVDESGKSVGPIVDGDAVVTFNFRADRMVMLAKALEFADFDKFDRVRVPKIKYAGMLQYDGELKLPNKFLVSPPLIERTSGEYLVKNGVRTFACSETVKFGHVTFFWNGNRSGYFDETKEEYIEIPSDSGITFNEQPKMKALEIAEKTRDAILSGKFDQVRINLPNGDMVGHTGDIEATVVACKAADEAVKIVLDAVEQVGGIYLVTADHGNAEDMVKRNKSGQPALDKSGSIQILTSHTLQPVPVAIGGPGLHPGVKFRSDINTPGLANVAATVMNLHGFQAPDDYETTLIEVAD
modifications: Phleum Pratense
B3: NTGA 26: Phl p wild type sequence, Table 2 (protein)
chain: GVFTDKDKAAAHMKGGAKKVVISAPSKDAPMFVVGVNEDKYTSDVNIVSNASCTTNCLAPLAKIINDNFGIVEGLMTTVHSITATQKTVDGPSSKDWRGGRAASFNIIPSSTGAAKAVGKVLPELNGKLTGMSFRVPTVDVSVVDLTVRIEKAASYEDIKKAIKAASEGNLKGIMGYVEEDLVSTDFIGDSRSSIFDAKAGIALNDNFVKLVSWYDNEWGY
modifications: Phleum Pratense
B4: NTGA 29: Phl p wild type sequence, Table 2 (protein)
chain: MASEKHFKYVILGGGVAAGYAAREFAKQGVQPGELAIISKESVAPYERPALSKGYLFPQNAARLPGFHTCVGSGGEKLLPEWYTEKGIELILSTEIVKADLASKTLTSAAGATFTYETLLIATGSSTIKLTDFGVQGAEANNILYLRDINDADKLVAAMQAKKDGKAVVVGGGYIGLELSAALKLNNFDVTMVYPEPWCMPRLFTAGIAHFYEGYYASKGINIVKGTVASGFDADANGDVAVVKLKDGRVLDANIVIVGVGGRPLTGLFKGQVDEEKGGLKTDTFFETSVAGVYAIGDVASFPMKLYNEPRRVEHVDHARKSAEQAVKAIKAKESGETVAEYDYLPYFYSRSFDIAWQFYGDNVGESVLFGDNDPAAAKAKFGTYWVKDGKVVGVFLEGGSADENQAIAKVARAQPLVAANLGELGKEGLDFAAKI
modifications: Phleum Pratense
B5: NTGA 30: Phl p wild type sequence, Table 2 (protein)
chain: MAGGGVEDVYGEDRATEEQFVTPWSFSVASGHSLLRDPRHNKGLAFSEAERDAHYLRGLLPPAIVSQEHQEKKIMHNLRQYTVPLQRYIAMMDLQERNERLFYKLLIDNVEELLPVVYTPVVGEACQKYGSIYRRPQGLYISLKDKGKVLEVLKNWPERSIQVIVVTDGERILGLGDLGCQGMGIPVGKLSLYTALGGVRPSACLPITIDVGTNNQTLLDDEYYIGLKQRRATGEEYHELLQEFMNAVKQNYGEKVLVQFEDFANHNAFDLLAKYSKSHLVFNDDIQGTASVVLAGLLAALKVIGGGLADQTYLFLGAGEAGTGIAELIALEMSKHTDLPLDDCRKKIWLVDSKGLLVESRKESLQHFKKPFAHEHEPLTTLLEAVQSLKPTVLIGTSGVGKTFTQEVVEAMASFNEKPVIFSLSNPTSHSECTAEEAYTWTKGTAVFASGSPFDPVEYEGKTYVPGQSNNAYVFPGFGLGVVISGAIRVHDDMLLAASEALAEQVSQENFDKGLIFPPFTNIRKISANIAAKVAAKAYDLGLASRLPRPDDLVKYAESCMYTPLYRSYR
modifications: Phleum Pratense
B6: NTGA 32: Phl p wild type sequence, Table 2 (protein)
chain: MAPIKIGINGFGRIGRLVARVALQCPDVELVAVNDPFITTDYMTYMFKYDTVHGQWKHHDVKVKDAKTLLFGEKEVAVFGCRNPEEIPWGAAGADYVVESTGVFTDKDKAAAHIKGGAKKVIISAPSKDAPMFVCGVNEKEYTSDITIVSNASCTTNCLAPLAKVINDRFGIVEGLMTTVHAMTATQKTVDGPSSKDWRGGRAASFNIIPSSTGAAKAVGKVLPVLNGKLTGMAFRVPTVDVSVVDLTVRLEKAATYEQIKAAIKEESEGNLKGILGYVDEDLVSTDFQGDSRSSIFDAKAGIALNDNFVKLVSWYDNEWGYSTRVVDLIRHIHATK
modifications: Phleum Pratense
B7: NTGA 34: Phl p wild type sequence, Table 2 (protein)
chain: MSFSWICACVRAAAVAWEAGKPLSIEEVEVAPPQAMEVRVKILFTALCHTDVYFWEAKGQTPVFPRIFGHEAGGIVESVGEGVTDVAPGDHVLPVFTGECKECRHCKSAESNMCDLLRINTDRGVMISDGKSRFSIDGKPIFHFVGTSTFSEYTVMHVGCVAKINPEAPLDKVCVLSCGISTGLGASINVAKPPKGSTVAIFGLGAVGLAAAEGARIAGASRIIGIDLNANRFEEARKFGCTEFVNPKDHTKPVQEVLAEMTDGGVDRSVECTGNINAMIQAFECVHDGWGVAVLVGVPHKDAEFKTHPMNFLNERTLKGTFFGNFKPRTDLPNVVEMYMKKELEVEKFITHSVTFSEINKAFDLMAKGEGIRCIIRMEH
modifications: Phleum Pratense
B8: NTGA 51: Phl p wild type sequence, Table 2 (protein)
chain: MSPAEPTREESVYMAKLAEQAERYEEMVEFMERVAKATGGAGPGEELSVEERNLLSVAYKNVIGARRASWRIISSIEQKEEGRGNDAHATTIRSYRSKIEAELAKICDGILALLDSHLVPSAGAAESKVFYLKMKGDYHRYLAEFKSGAERKEAAESTMNSYKAAQDIALADLAPTHPIRLGLALNFSVFYYEILNSPDRACNLAKQAFDEAISELDSLGEESYKDSTLIMQLLRDNLTLWTSDTNEDGGDEIKEAPAPKESGD
modifications: Phleum Pratense
B9: NTGA 56: Phl p wild type sequence, Table 2 (protein)
chain: MARLLFPLPIAAAAVSASSIHLAASRFRLPVVSAARRGTLFGGRVAVRAPARLATRGVSAGAEAGGSAARAGTVIGPEEALEWVKNDRRRLLHVVYRVGDLDKTIKFYTECLGMKLLRKRDIPEERYTNAFLGYGPEDSHFVVELTYNYGVESYDIGSGFGHFGIAVEDVEKTVELIKAKGGTVTREPGPVKGGKSVIAFIEDPDGYKFELIERGPTPEPLCQVMLRVGDLDRAIKFYEKAFGMELLRRKDNPQYKYTIAMMGYGPEDKNAVLELTYNYGVKEYDKGNAYAQIAIGTDDVYKTAEVVRQNGGQITREPGPLPGISTKITACTDPDGWKSVFVDNLDFLKELEE
modifications: Phleum Pratense

Test system: cultured PBMCs of the allergic donors
Assay: ELISPOT of IL-5 or IFNg production by cultured PBMCs of TG allergic donors in response to peptide
Assay type: cell-based, human
Conditions: for NTGA's containing at least one T cell epitope, Th+ (Col 2): NTGA number given = criterion met, TG allergic donors n=20; for No of PG+ & th+ peptides per NTGA / No of PP & Th+ peptides per NTGA: Table 6; for No of PG+ & th+ peptides per NTGA: PG+ peptides recognized by T cells of grass allergic donors (n=20); for No of PP & Th+ peptides per NTGA: PP peptides recognized by T cells of grass allergic donors (n=20); for # Th+: Table 7, peptides per NTGA recognized by T cells of grass allergic donors (n=20)
Source text: Table 1 indicates for each of the 397 PG+ peptides in which non-grass pollen species a matching peptide with either less than 3, less than 2 or zero mismatches are found. The number of TG grass allergic donors (n=20) with an in vitro T cell response to the TG peptide sequence is also shown.
A set of 93 proteins from Timothy grass (TG) pollen and the assembly of 822 peptides (15 mers) predicted to promiscuously bind HLA class II molecules shown in Table 9 and the immune reactivity in allergic donors have been reported in PCT application WO 2013/119863. […] Immune reactivity was determined by the production of IL-5 or IFNg from cultured PBMCs of the allergic donors in response to stimulation with a peptide and IL-5 and IFNg were measured by ELISPOT as described in Oseroff C et al, 2010.
In short, T cell immune reactivity was determined using PBMCs isolated from study participants and stored in liquid nitrogen until further use. For experimental testing, PBMCs were thawed and expanded in vitro with TG pollen extract (50 μg/mL) or the peptide pool ([…]). The TG extract and peptide pools had each been previously titrated to determine optimal stimulation concentrations.
Cytokine production by cultured PBMCs in response to antigen stimulation was measured by ELISPOT. Cells (1×10^5 cells/well) were plated and incubated with peptide (10 μg/mL), the peptide pool (5 μg/mL), or the TG extract (50 μg/mL). Phytohaemagglutinin (10 μg/mL) and medium alone were used as positive and negative controls, respectively. Samples were considered to produce a cytokine if 100 spot-forming cells (SFCs)/10^6 PBMCs were detected, with P .05 and a stimulation index of 2 or more. Criteria for individual peptides were the same except that a minimum of 20 SFCs were required for a sample to be counted as positive.
Table 3 lists the 397 PG+ peptides and indicates for each non-grass pollen species whether a matching peptide with either less than 3, less than 2 or zero mismatches could be detected. The immune reactivity of the TG peptide was assessed as the number of TG grass allergic donors (n=20) having in vitro T cell response against the TG peptide.

Molecule	NTGA's containing at least one T cell epitope, Th+ (Col 2)	No of PG+ & th+ peptides per NTGA	No of PP & Th+ peptides per NTGA	# Th+
B1	10	3	0	0
B2	11	5	1	0
B3	26	1	1	0
B4	29	1	1	0
B5	30	1	1	0
B6	32	4	4	0
B7	34	3	1	0
B8	51	2	1	0
B9	56	1	1	0
